Experiment: yeast display, Sf9 membrane polyspecificity reagent, FACS + sequencing; frameworks hold sequencing errors
In short: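 A synthetic nanobody library was expressed on Saccharomyces cerevisiae BJ5465 by galactose induction for 36–48 hours. The library was stained for 1 hour at 4 °C with 10% biotinylated, detergent-solubilized Sf9 membrane reagent and enriched with streptavidin microbeads before FACS. Low and high (top ~1%) gates were set on anti-HA fluorescence for expression and streptavidin fluorescence for reagent binding, and each polyreactivity label reflects the gate of origin.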

QVQLVESGGGLVQAGGSLRLSCAASGFTFDGYAMGWYRQAPGKERELVAAISDSGDSTYYADSVKGRFTISRDNAKNTVYLQMNSLKPEDTAVYYCAAGLGYYWSDYFAYDYWGQGTQVTVSS
polyreactivity (PSR sort gate): low polyreactivity

QVQLVESGGGLVQAGGSLRLSCAASGFTFDHNDMGWYRQAPGKEMELVAAITWSAGSTYYADSVKGRFTISRDNAKNTVYLEMNSLKPEDTAVYYCAADAWYYSIYRGGDYWGQGTQVTVSS
polyreactivity (PSR sort gate): low polyreactivity

QVQLVESGGGLVQAGGSLRLSCAASGFTFDKNVMGWYRQAPGKERELVAAISVRGGTTYYADSVKGRFTISRDNAKNTVYLQMNSLKPEDTAVYYCAARAYGPPARYDSWGQGTQVTVSS
polyreactivity (PSR sort gate): low polyreactivity

QVQLVESGGGLVQAGGSLRLSCAASGFTFDKYAMGWYRQAPGKERELVAAITQNGGSTNYADSVKGRFTISRDNAKNTVYLQMNSLKPEDTAVYYCATRSSYLSYVSRMYYWGQGTQVTVSS
polyreactivity (PSR sort gate): high polyreactivity

QVQLVESGGGLVQAGGSLRLSCAASGFTFDPYAMGWYRQAPGKERELVAAISFSGGSTSYADSVKGRFTISRDNAKNTVYLHMNSLKLEDTAVYYCNAEYDWWSYWYDYWGQGTQVTVSS
polyreactivity (PSR sort gate): high polyreactivity

QVQLVESGGGLVQAGGSLRLSCAASGFTFDQYAMGRNRQAPGKERELVAVISSGGSTYYADSVKGRFTFSRDNAKNTVYLQMNSLKQEDTAVYYCNRDRQRRYDYWGQGTQVTLSS
polyreactivity (PSR sort gate): high polyreactivity

QVQLVESGGGLVQAGGSLRLSCAASGFTFDQYTMGWYRQAPGKERELVAAISSSGGSTYYADSVKGRFTISRDNAKNTVYLQMNSLKPEDTAVYYCAARFLLTQRVSHDYRGQGTQVTVSS
polyreactivity (PSR sort gate): low polyreactivity

QVQLVESGGGLVQAGGSLRLSCAASGFTFDRNAMGWYRQAPGKERGFVAAISSSGGRTYYADSVKGRFTISRDNAKITVYLEMNSLKQEDTALYYCAADFVSRPSAYGSSYYWGQGTQVTVSS
polyreactivity (PSR sort gate): high polyreactivity

QVQLVESGGGLVQAGGSLRLSCAASGFTFDSNAMGWYIQAPGKERELVAAISTGGSTYYADSVKGRFTISRDNAKNTVYLQMNSLKPEDTAVYYCARDPPYPDTWYGYWGQGTQVTVSS
polyreactivity (PSR sort gate): low polyreactivity

QVQLVESGGGLVQAGGSLRLSCAASGFTFDSNAMGWYRQAPGKERELVAAISTGGSTYYADSVKGRFTISRDNAKNTVYLQMNSLKPEDTAVYYCARDPPYPDTWYGYWGQGTQVTVSS
polyreactivity (PSR sort gate): low polyreactivity

QVQLVESGGGLVQAGGSLRLSCAASGFTFDSYAMGWYRQAPGKERELVAAITSDGSTYYADSVKGRFTISRDNAKNTVYLQMNSLKPEDTAVYYCAADGISLYATAYDYWGQGTQVTVSS
polyreactivity (PSR sort gate): low polyreactivity

QVQLVESGGGLVQAGGSLRLSCAASGFTFDSYAMGWYRQAPGKERELVAAITWSGGSTYYADSVKGRFTISRDNAKNTVYLQMMSLKPEDTAVYYCNVYRYDGDYWGQGTQVTVSS
polyreactivity (PSR sort gate): high polyreactivity

QVQLVESGGGLVQAGGSLRLSCAASGFTFDSYAMGWYRQAPGKERELVADITWDGGSTYYADSVKGRFTISRDNAKNTVYLQMKSLKPEDTAVYYCAADFGTFSIDVYSWMDYWGQGTQATVSS
polyreactivity (PSR sort gate): low polyreactivity

QVQLVESGGGLVQAGGSLRLSCAASGFTFDVYTMGWYRQAPGKEREFVAAISGSGGSTYYADSVKGRFTISRDNAKNTVYLQMNSLKPEDTAVYYCNAGLSRVSHRHLSHSLQGYDYWGQGTQVTVSS
polyreactivity (PSR sort gate): low polyreactivity

QVQLVESGGGLVQAGGSLRLSCAASGFTFDYYAMGWYRQAPGKDRELVAAITSGSITYYADSVKGRFTISRDNAKNTVYLQMNSLKPEDTAVYYCARYGYRRVGSRWAEFDYWGQGTQVTVSS
polyreactivity (PSR sort gate): high polyreactivity

QVQLVESGGGLVQAGGSLRLSCAASGFTFDYYAMGWYRQAPGKERELVAAITSGSITYYADSVKGRFTISRDNAKNTVYLQMNSLKPEDTAVYYCARYGYRRVGSRWAEFDYWGQGTQVTVSS
polyreactivity (PSR sort gate): high polyreactivity

QVQLVESGGGLVQAGGSLRLSCAASGFTFDYYVMGWYIQAPGKERELVAAITFSATSTYYADSVKGRYTISRDNAKNTVYLQMNSLNPEDTAVYYCAAVICNWQYQYYYWGQGTKVTVSS
polyreactivity (PSR sort gate): low polyreactivity

QVQLVESGGGLVQAGGSLRLSCAASGFTFEFYVMGGYSPAPGKERELVAAISTTGGSTYYADSVKGRFTISRDNAKNTVYLQMNSLKPEDTAVYYCAAEYYLWWKSHLWEYGYWGQGTQVTVSS
polyreactivity (PSR sort gate): high polyreactivity

QVQLVESGGGLVQAGGSLRLSCAASGFTFEGYAMGWYRQAPGKERELVAAISDNGGRTYYADSVKGRFTISRDNAKNTVYLQMHPLTPEETEVYYCNARPAYSGPDYDYYHGRRYDYWGQGTQVTVSS
polyreactivity (PSR sort gate): low polyreactivity

QVQLVESGGGLVQAGGSLRLSCAASGFTFEIYAMGWYSQAPGKVRELVAAISKSGGSTYYADSVKGRFTISRDNAKKRVYLQMNSLKPEDSSVYSCAARYKALYDYWGQGTQVTVSS
polyreactivity (PSR sort gate): high polyreactivity

QVQLVESGGGLVQAGGSLRLSCAASGFTFEKYVMGWYRQAPGKEREFVAAITRSGGRTYYADSVKGRFTISRDNAKNTVYLQMNSLKPEDSAVYYCAAAFSRSDTGGGSWGQGTEVTVSS
polyreactivity (PSR sort gate): high polyreactivity

QVQLVESGGGLVQAGGSLRLSCAASGFTFERNTMGWYRQAPGKERELVSTITRRGTSTYYADSVKGRFTISRDNAKNTVYLQMNSLKPEDTAVYYCAVYGYRTKYGYWGQGTQVTVSS
polyreactivity (PSR sort gate): high polyreactivity

Source: the nanobody polyreactivity screen of Harvey et al. (2022)
